Measurements taken from patent US20250076311A1 (Chugai, published 2025).

T1: cynomolgus monkey FcγRIIa2 extracellular domain with C-terminal His-tag (cynomolgus monkey)
T1 construct: also called cyno FcgRIIa2; cynoFcγRIIa2
T1 chain: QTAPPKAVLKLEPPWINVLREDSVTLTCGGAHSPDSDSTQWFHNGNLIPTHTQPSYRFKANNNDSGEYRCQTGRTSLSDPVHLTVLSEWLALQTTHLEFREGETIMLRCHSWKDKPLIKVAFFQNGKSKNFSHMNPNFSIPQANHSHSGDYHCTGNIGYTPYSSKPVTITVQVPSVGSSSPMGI

T2: human FcγRIIb extracellular domain with C-terminal His-tag (human, UniProt P31994 43-217)
T2 construct: also called human FcgRIIb
T2 sequence: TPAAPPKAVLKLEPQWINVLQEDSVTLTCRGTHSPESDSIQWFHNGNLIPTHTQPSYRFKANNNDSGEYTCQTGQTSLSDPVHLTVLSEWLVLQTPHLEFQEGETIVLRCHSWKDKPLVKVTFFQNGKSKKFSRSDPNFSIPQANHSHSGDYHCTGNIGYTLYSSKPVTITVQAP

T3: human FcγRIIaR extracellular domain with C-terminal His-tag (human, UniProt P12318 34-217)
T3 construct: also called human FcgRIIaR; FcγRIIa (type R)
T3 chain: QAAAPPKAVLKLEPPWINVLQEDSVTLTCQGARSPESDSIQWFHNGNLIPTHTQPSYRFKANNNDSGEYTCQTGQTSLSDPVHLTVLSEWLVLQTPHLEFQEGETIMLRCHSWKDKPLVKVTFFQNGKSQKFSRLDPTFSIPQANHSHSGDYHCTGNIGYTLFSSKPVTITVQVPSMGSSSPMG

T4: cynomolgus monkey FcγRIIb extracellular domain with C-terminal His-tag (cynomolgus monkey)
T4 construct: also called cyno FcgRIIb; cynoFcγRIIb
T4 chain: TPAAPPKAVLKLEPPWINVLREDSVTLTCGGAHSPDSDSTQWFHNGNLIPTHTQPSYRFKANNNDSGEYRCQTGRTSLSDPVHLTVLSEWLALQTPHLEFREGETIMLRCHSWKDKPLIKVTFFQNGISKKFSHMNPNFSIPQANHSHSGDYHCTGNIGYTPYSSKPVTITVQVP

T5: human FcγRIIaH extracellular domain with C-terminal His-tag (human, UniProt P12318 34-217)
T5 construct: also called human FcgRIIaH; FcγRIIa (type H)
T5 sequence: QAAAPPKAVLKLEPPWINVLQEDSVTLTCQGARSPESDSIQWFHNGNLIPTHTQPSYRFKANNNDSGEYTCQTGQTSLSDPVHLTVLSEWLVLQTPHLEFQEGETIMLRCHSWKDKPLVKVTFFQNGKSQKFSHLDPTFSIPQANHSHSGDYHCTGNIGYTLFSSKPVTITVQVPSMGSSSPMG

T6: cynomolgus monkey FcγRIIa1 extracellular domain with C-terminal His-tag (cynomolgus monkey)
T6 construct: also called cyno FcgRIIa1; cynoFcγRIIa1
T6 chain: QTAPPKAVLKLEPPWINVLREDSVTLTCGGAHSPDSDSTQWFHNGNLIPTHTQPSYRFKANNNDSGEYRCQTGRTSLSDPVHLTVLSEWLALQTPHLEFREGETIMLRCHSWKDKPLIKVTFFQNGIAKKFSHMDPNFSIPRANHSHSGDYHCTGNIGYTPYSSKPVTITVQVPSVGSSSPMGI

T7: cynomolgus monkey FcγRIIa3 extracellular domain with C-terminal His-tag (cynomolgus monkey)
T7 construct: also called cyno FcgRIIa3; cynoFcγRIIa3
T7 chain: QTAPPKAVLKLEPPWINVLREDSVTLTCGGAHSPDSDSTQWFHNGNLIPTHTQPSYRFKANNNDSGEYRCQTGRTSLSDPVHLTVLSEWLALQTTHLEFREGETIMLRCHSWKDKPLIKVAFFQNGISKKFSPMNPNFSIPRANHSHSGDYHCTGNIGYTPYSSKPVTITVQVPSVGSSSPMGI


Columns and labels:
[1] = target: T1, cynomolgus monkey FcγRIIa2 …; experiment: SPR (Biacore), antibody captured, FcgR analyte
[2] = target: T1, cynomolgus monkey FcγRIIa2 …; experiment: SPR (Biacore), KD of SG1 / KD of variant
[3] = target: T2, human FcγRIIb extracellular domain with …; experiment: SPR (Biacore), antibody captured, FcgR analyte
[4] = target: T8, human FcγRIIIaV extracellular domain with C-terminal His-tag (human, UniProt P08637 17-208); experiment: SPR (Biacore), antibody captured, FcgR analyte
T8 construct: also called human FcgRIIIaV

[5] = target: T3, human FcγRIIaR extracellular domain …; experiment: SPR (Biacore), KD of SG1 / KD of variant
[6] = target: T4, cynomolgus monkey FcγRIIb extracellular …; experiment: SPR (Biacore), KD of SG1 / KD of variant
[7] = target: T5, human FcγRIIaH extracellular domain …; experiment: SPR (Biacore), KD of SG1 / KD of variant
[8] = target: T8, human FcγRIIIaV extracellular domain …; experiment: SPR (Biacore), KD of SG1 / KD of variant
[9] = target: T6, cynomolgus monkey FcγRIIa1 …; experiment: SPR (Biacore), antibody captured, FcgR analyte
[10] = target: T7, cynomolgus monkey FcγRIIa3 …; experiment: SPR (Biacore), antibody captured, FcgR analyte
[11] = target: T5, human FcγRIIaH extracellular domain …; experiment: SPR (Biacore), antibody captured, FcgR analyte

T8 sequence (P08637 17-208 F176V): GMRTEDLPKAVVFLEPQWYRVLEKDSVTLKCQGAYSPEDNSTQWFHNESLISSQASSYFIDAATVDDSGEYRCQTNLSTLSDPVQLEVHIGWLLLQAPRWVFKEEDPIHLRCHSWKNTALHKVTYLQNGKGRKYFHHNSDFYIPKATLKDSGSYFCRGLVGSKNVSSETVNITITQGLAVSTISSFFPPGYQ

Binder	Kd [1] [nM]	KD fold (SG1 = 1) [2] [fold]	Kd [3] [nM]	KD fold (SG1 = 1) [6] [fold]	KD fold (SG1 = 1) [8] [fold]	further results
M103205H795-MY455/M103202L889-SK1 (antibody, human IgG1, kappa, Substitutions in EU numbering on SG1) heavy: QVTLKESGPVLVKPTETLTLTCTVSGIDLSHDDISWVRQAPGKGLEWVGIISYAGSTYYASWAKGRLTISKDTSKNQVVLTMTNMDPVDTATYYCARGVPAYSHGGDLWGQGTLVTVSSASTKGPSVFPLAPSSKSTSGGTAALGCLVKDYFPEPVTVSWNSGALTSGVHTFPAVLQSSGLYSLSSVVTVPSSSLGTQTYICNVNHKPSNTKVDKKVEPKSCDKTHTCPPCPATELLTGPSVFLFPPKPKDTLMISRTPEVTCVVVDVSDEDPEVKFNWYVDGVEVHNAKTKPREEQYNSTYRVVSVLTVLHQDWLNGKEYKCKVSNKALPKPIEKTISKAKGQPREPQVYTLPPSREEMTKNQVSLTCLVKGFYPSDIAVEWESNGQPENNYKTTPPVLDSDGSFFLYSKLTVDKSRWQQGNVFSCSVMHEALHNHYTQKSLSLSP light: DIVMTQSPATLSLSPGERATLSCTSSQSVYHANWLSWFQQKPGQPPKLLIYWASTLAYGVPSRFSGSGSGTDFTLTISSLQPEDAATYYCAGGYGGGRYAFGQGTKVEIKRTVAAPSVFIFPPSDEQLKSGTASVVCLLNNFYPREAKVQWKVDNALQSGNSQESVTEQDSKDSTYSLSSTLTLSKADYEKHKVYACEVTHQGLSSPVTKSFNRGEC	2900	–	–	–	–	–
M103205H795-MY461/M103202L889-SK1 (antibody, Substitutions in EU numbering on SG1) heavy: QVTLKESGPVLVKPTETLTLTCTVSGIDLSHDDISWVRQAPGKGLEWVGIISYAGSTYYASWAKGRLTISKDTSKNQVVLTMTNMDPVDTATYYCARGVPAYSHGGDLWGQGTLVTVSSASTKGPSVFPLAPSSKSTSGGTAALGCLVKDYFPEPVTVSWNSGALTSGVHTFPAVLQSSGLYSLSSVVTVPSSSLGTQTYICNVNHKPSNTKVDKKVEPKSCDKTHTCPPCPFPELLTGPSVFLFPPKPKDTLMISRTPEVTCVVVDVSDEDPEVKFNWYVDGVEVHNAKTKPREEQYNSTYRVVSVLTVLHQDWLNGKEYKCKVSNKALPKPIEKTISKAKGQPREPQVYTLPPSREEMTKNQVSLTCLVKGFYPSDIAVEWESNGQPENNYKTTPPVLDSDGSFFLYSKLTVDKSRWQQGNVFSCSVMHEALHNHYTQKSLSLSP light: DIVMTQSPATLSLSPGERATLSCTSSQSVYHANWLSWFQQKPGQPPKLLIYWASTLAYGVPSRFSGSGSGTDFTLTISSLQPEDAATYYCAGGYGGGRYAFGQGTKVEIKRTVAAPSVFIFPPSDEQLKSGTASVVCLLNNFYPREAKVQWKVDNALQSGNSQESVTEQDSKDSTYSLSSTLTLSKADYEKHKVYACEVTHQGLSSPVTKSFNRGEC	–	2.8	–	3.6	0.2	KD fold (SG1 = 1) [7]: 3.6 fold; Kd [9]: 1800 nM; Kd [10]: 3500 nM; Kd [11]: 180 nM
M103205H795-MY462/M103202L889-SK1 (antibody, Substitutions in EU numbering on SG1) heavy: QVTLKESGPVLVKPTETLTLTCTVSGIDLSHDDISWVRQAPGKGLEWVGIISYAGSTYYASWAKGRLTISKDTSKNQVVLTMTNMDPVDTATYYCARGVPAYSHGGDLWGQGTLVTVSSASTKGPSVFPLAPSSKSTSGGTAALGCLVKDYFPEPVTVSWNSGALTSGVHTFPAVLQSSGLYSLSSVVTVPSSSLGTQTYICNVNHKPSNTKVDKKVEPKSCDKTHTCPPCPGPELLTGPSVFLFPPKPKDTLMISRTPEVTCVVVDVSDEDPEVKFNWYVDGVEVHNAKTKPREEQYNSTYRVVSVLTVLHQDWLNGKEYKCKVSNKALPKPIEKTISKAKGQPREPQVYTLPPSREEMTKNQVSLTCLVKGFYPSDIAVEWESNGQPENNYKTTPPVLDSDGSFFLYSKLTVDKSRWQQGNVFSCSVMHEALHNHYTQKSLSLSP light: DIVMTQSPATLSLSPGERATLSCTSSQSVYHANWLSWFQQKPGQPPKLLIYWASTLAYGVPSRFSGSGSGTDFTLTISSLQPEDAATYYCAGGYGGGRYAFGQGTKVEIKRTVAAPSVFIFPPSDEQLKSGTASVVCLLNNFYPREAKVQWKVDNALQSGNSQESVTEQDSKDSTYSLSSTLTLSKADYEKHKVYACEVTHQGLSSPVTKSFNRGEC	1800	–	–	3.6	0.2	–

The next lines start with results.

Kd [1] [nM]	KD fold (SG1 = 1) [2] [fold]	Kd [3] [nM]	KD fold (SG1 = 1) [6] [fold]	KD fold (SG1 = 1) [8] [fold]	Binder	further results
–	2.8	2300	–	–	M103205H795-MY463/M103202L889-SK1 (antibody) chain 1: QVTLKESGPVLVKPTETLTLTCTVSGIDLSHDDISWVRQAPGKGLEWVGIISYAGSTYYASWAKGRLTISKDTSKNQVVLTMTNMDPVDTATYYCARGVPAYSHGGDLWGQGTLVTVSSASTKGPSVFPLAPSSKSTSGGTAALGCLVKDYFPEPVTVSWNSGALTSGVHTFPAVLQSSGLYSLSSVVTVPSSSLGTQTYICNVNHKPSNTKVDKKVEPKSCDKTHTCPPCPHPELLTGPSVFLFPPKPKDTLMISRTPEVTCVVVDVSDEDPEVKFNWYVDGVEVHNAKTKPREEQYNSTYRVVSVLTVLHQDWLNGKEYKCKVSNKALPKPIEKTISKAKGQPREPQVYTLPPSREEMTKNQVSLTCLVKGFYPSDIAVEWESNGQPENNYKTTPPVLDSDGSFFLYSKLTVDKSRWQQGNVFSCSVMHEALHNHYTQKSLSLSP chain 2: DIVMTQSPATLSLSPGERATLSCTSSQSVYHANWLSWFQQKPGQPPKLLIYWASTLAYGVPSRFSGSGSGTDFTLTISSLQPEDAATYYCAGGYGGGRYAFGQGTKVEIKRTVAAPSVFIFPPSDEQLKSGTASVVCLLNNFYPREAKVQWKVDNALQSGNSQESVTEQDSKDSTYSLSSTLTLSKADYEKHKVYACEVTHQGLSSPVTKSFNRGEC	Kd [4]: 4800 nM
–	–	2300	–	–	M103205H795-MY470/M103202L889-SK1 (antibody) chain 1: QVTLKESGPVLVKPTETLTLTCTVSGIDLSHDDISWVRQAPGKGLEWVGIISYAGSTYYASWAKGRLTISKDTSKNQVVLTMTNMDPVDTATYYCARGVPAYSHGGDLWGQGTLVTVSSASTKGPSVFPLAPSSKSTSGGTAALGCLVKDYFPEPVTVSWNSGALTSGVHTFPAVLQSSGLYSLSSVVTVPSSSLGTQTYICNVNHKPSNTKVDKKVEPKSCDKTHTCPPCPQPELLTGPSVFLFPPKPKDTLMISRTPEVTCVVVDVSDEDPEVKFNWYVDGVEVHNAKTKPREEQYNSTYRVVSVLTVLHQDWLNGKEYKCKVSNKALPKPIEKTISKAKGQPREPQVYTLPPSREEMTKNQVSLTCLVKGFYPSDIAVEWESNGQPENNYKTTPPVLDSDGSFFLYSKLTVDKSRWQQGNVFSCSVMHEALHNHYTQKSLSLSP chain 2: DIVMTQSPATLSLSPGERATLSCTSSQSVYHANWLSWFQQKPGQPPKLLIYWASTLAYGVPSRFSGSGSGTDFTLTISSLQPEDAATYYCAGGYGGGRYAFGQGTKVEIKRTVAAPSVFIFPPSDEQLKSGTASVVCLLNNFYPREAKVQWKVDNALQSGNSQESVTEQDSKDSTYSLSSTLTLSKADYEKHKVYACEVTHQGLSSPVTKSFNRGEC	KD fold (SG1 = 1) [5]: 2.3 fold
